From patent publication US20250313625A1 (ELPISCIENCE SUZHOU BIOPHARMA, published 2025)

Key:
[1] = target: T1, hFc tagged human LAG3 ECD recombinant protein (human, UniProt P18627 23-450); experiment: competitive ELISA format II: biotin hFc-LAG3 ECD binding to coated His-FGL1
T1 construct: range 23-450; also called biotin labelled hFc tagged human LAG3 ECD; not shown: human IgG Fc tag
T1 sequence (looked up): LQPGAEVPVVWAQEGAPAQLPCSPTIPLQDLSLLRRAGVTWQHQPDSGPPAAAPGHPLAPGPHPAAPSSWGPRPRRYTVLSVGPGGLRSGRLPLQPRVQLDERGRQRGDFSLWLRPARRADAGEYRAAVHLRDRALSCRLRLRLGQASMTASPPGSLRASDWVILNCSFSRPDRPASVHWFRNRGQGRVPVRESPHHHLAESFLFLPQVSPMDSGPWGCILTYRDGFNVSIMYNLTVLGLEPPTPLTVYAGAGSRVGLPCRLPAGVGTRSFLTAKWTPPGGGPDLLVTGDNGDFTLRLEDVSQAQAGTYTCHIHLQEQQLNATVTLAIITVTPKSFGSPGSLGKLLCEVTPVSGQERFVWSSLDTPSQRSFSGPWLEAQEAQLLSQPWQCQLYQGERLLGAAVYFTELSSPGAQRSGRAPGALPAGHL
Method: (§1) After washing, HRP labeled anti-His 2nd antibody (Sigma) was added and incubated at 37° C. for 1 hour. Then, 100 μl/well of TMB solution (Biotechnology) was added. After incubation for 15 minutes at room temperature, the reaction was stopped by the addition of 50 μl of 1N HCl. OD 450 nm was read. […] After washing, HRP labeled anti-SA 2nd antibody (Sigma) was added and incubated at 37° C. for 1 hour. Then, 100 μl/well of TMB solution (Biotechnology) was added. After incubation for 15 minutes at room temperature, the reaction was stopped by the addition of 50 μl of 1N HCl. OD 450 nm was read. […] The competition assay of format III is a competitive FACS assay. […] After washing, dye labeled anti-His 2nd antibody (Sigma) was added and incubated at 37° C. for 1 hour. Fluorescence intensity was detected.

[2] = target: T2, human LAG3, full length, stably expressed on cells (human, UniProt P18627 23-525); experiment: competitive FACS format III: His-FGL1 binding to 293F-human LAG3 cells
T2 construct: whole, on cells; also called CHOK1-human LAG3
T2 sequence (looked up): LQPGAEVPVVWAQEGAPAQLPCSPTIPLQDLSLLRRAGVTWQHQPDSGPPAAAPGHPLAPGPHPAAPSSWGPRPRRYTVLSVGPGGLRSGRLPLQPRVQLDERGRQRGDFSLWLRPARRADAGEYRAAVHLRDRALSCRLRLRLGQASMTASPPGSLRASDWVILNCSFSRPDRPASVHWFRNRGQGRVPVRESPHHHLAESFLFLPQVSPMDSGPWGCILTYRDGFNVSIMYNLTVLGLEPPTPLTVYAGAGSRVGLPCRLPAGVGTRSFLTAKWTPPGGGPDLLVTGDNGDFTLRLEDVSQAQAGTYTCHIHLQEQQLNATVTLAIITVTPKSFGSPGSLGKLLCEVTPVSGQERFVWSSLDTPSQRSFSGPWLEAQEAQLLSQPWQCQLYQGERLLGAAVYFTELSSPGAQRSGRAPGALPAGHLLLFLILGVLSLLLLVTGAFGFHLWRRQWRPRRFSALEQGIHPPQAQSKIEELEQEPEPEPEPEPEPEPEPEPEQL
Method: as §1

[3] = target: T3, human LAG3 (form used in Octet, Biacore and HDX-MS not given) (human, UniProt P18627 23-450, limits assumed); experiment: BLI (Octet)
T3 sequence (looked up): T1 sequence (looked up)

[4] = target: T3, human LAG3 (form used in Octet, Biacore …); experiment: SPR (Biacore), 1:1 fit
Method: The association and dissociation curves were fit with 1:1 binding model, and the Ka/Kd/KD values for each antibody were calculated.

[5] = target: T4, LAG3 D1 domain extra loop peptide (biotin labelled (site not stated)); experiment: ELISA format I: biotin labelled LAG3 D1 domain extra loop peptide on plate coated antibody; axis printed as Ab Conc. (nM)
T4 peptide: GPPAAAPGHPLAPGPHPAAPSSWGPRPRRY
Method: In ELISA binding assay of format I (FIG. 9A), biotin labelled LAG3 D1 domain extra loop peptide was incubated with ELISA microplate coated anti-LAG3 antibodies. After washing, HRP labeled anti-SA 2nd antibody (Sigma) was added and incubated at 37° C. for 1 hour. Then, 100 μl/well of TMB solution (Biotechnology) was added. After incubation for 15 minutes at room temperature, the reaction was stopped by the addition of 50 μl of 1N HCl. OD 450 nm was read. In ELISA binding assay of format II (FIG. 9B), biotin labelled LAG3 D1 domain extra loop peptide and anti-LAG3 antibodies were co-incubated in ELISA microplate coated with SA. After washing, HRP labeled anti-human Fc 2nd antibody (Sigma) was added and incubated at 37° C. for 1 hour. Then, 100 μl/well of TMB solution (Biotechnology) was added. After incubation for 15 minutes at room temperature, the reaction was stopped by the addition of 50 μl of 1N HCl. OD 450 nm was read.

[6] = target: T5, human LAG3 ECD recombinant protein (plate coated, tag not stated) (human, UniProt P18627 23-450); experiment: competitive ELISA format I: His-FGL1 binding to coated LAG3 ECD
T5 construct: extracellular domain
T5 sequence (looked up): T1 sequence (looked up)

[7] = target: T6, mFc tagged human LAG3 ECD recombinant protein (human, UniProt P18627 23-450); experiment: competitive FACS: mFc-LAG3 ECD binding to Raji cells (MHC II)
T6 construct: extracellular domain; purchased from Biointron; not shown: mouse IgG Fc (mFc) tag
T6 sequence (looked up): T1 sequence (looked up)
Method: Activity of the purified chimeric antibodies to block LAG3 and MHC II interaction was determined by competitive FACS assay. […] After washing, dye labeled anti-mouse Fc 2nd antibody (Sigma) was added and incubated at 37° C. for 1 hour. Fluorescence intensity was detected.

[8] = target: T2, human LAG3, full length, stably …; experiment: FACS on 293F cells stably expressing human LAG3
Method: Briefly the antibodies were incubated with 2×10⁵ target cells at 4° C. for 1 hour. After washing, fluorescence labeled anti-mouse IgG 2nd antibody (Life Technologies) was added and incubated at 4° C. for 1 hour. Geometric median fluorescence intensity (MFI) was detected and EC₅₀ was calculated using GraphPad Prism9.0.
MFI was detected and EC₅₀ was calculated using GraphPad Prism9.0.

IC50 [1]: 1.5 nM
TOP blocking (%) [1]: 82.8%
Blocking ratio at 200 nM (%) [2]: 29%
Kd [3]: 0.456 nM
koff [3]: 0.000161 s⁻¹
kon [3]: 352000 M⁻¹ s⁻¹
Kd [4]: 0.0775 nM
koff [4]: 0.000441 s⁻¹
kon [4]: 5.68e+06 M⁻¹ s⁻¹
binding result [5]: no binding (tested: about 300 nM)
Blocking ratio at 66.7 nM (%) [6]: 52.9%
IC50 [7]: 6.2 nM
TOP blocking (%) [7]: 99.2%
EC50 [8]: 0.26 nM
TOP MFI [8]: 3430
B1: 023c (antibody, human IgG4, V domains shown)
VH: QIQLVQSGPVLKKPGETVKISCKASGYTFTESPMNWVKQAPGRGFKWMGMIYTDTGEPTYAEEFKGRFAFSLETSASTAYLQINNLKSEDTATYFCVSDYGSILYWYFDVWGTGTTVTVSS
VL: DIVMTQSHKFMSTSVGDRVSITCKASQDVSTAVAWYQQTPGQSPKLLIYSASYRYTGVPDRFTGSGSGTDFTFTISSVQAEDLAVYYCQQHYNSPPTFGAGTKLELK
notes: human IgG4 S228P / kappa chimeric antibody; also called chimeric antibody 023; ES005-023c; not shown: human kappa light chain constant region (pcDNA3.4-hIgGk vector)
